Test results taken from US20260286308A1, “COMPOSITION CONTAINING EXTRACELLULAR MATRIX AND MATRIX-BOUND VESICLES FOR PRODUCING EXTRACELLULAR MATRIX AND PREPARATION METHOD THEREFOR” (HLB CELL CO., LTD, priority 2023, published 2026).

What was measured:
[1] = test system: Human fibroblasts; experiment: Laminin content in cell culture of single-cultured human fibroblasts (anti-human laminin antibody plate kit, absorbance 450 nm); settings: 10 ng/mL epidermal growth factor added alone (Table 3 No. 2); FIG. 16
Procedure: To measure the amount of human laminin component in the extracellular matrix present in a culture obtained according to each example described below, quantitative analysis was conducted by using a commercially available analysis kit (TakaRa, MK107). The analysis method followed the manufacturer's instructions. Specifically, the culture was added onto a 96-well plate coated with an anti-human laminin antibody, followed by incubation. Thereafter, residues were washed off, and a chromogenic enzyme-conjugated specific antibody was added, followed by incubation. Then, quantitative analysis was conducted by measurement of the absorbance at 450 nm.
Human fibroblasts were seeded at a density of 3×10^5 cells per 150-mm^2 culture dish. […]
(§1) After being cultured according to Example 1.1.1, the cells were further cultured from day 8 using a serum-free/xeno-free culture medium [Dulbecco's Modified Eagle Medium: Ham's F-12 (1:1) supplemented with 100 (DMEM/F12) U/mL penicillin/streptomycin, 2 mM L-alanyl-L-glutamine, 5 μg/L selenium, 50 M ascorbate-2-phosphate, 10 mg/L insulin, 1 μM hydrocortisone, 0.02 nM triiodothyronine, 1 μM isoprenaline, and 10 μg/L epidermal growth factor] while the medium was exchanged at intervals of 2 to 3 days. […] The cell culture after collection was analyzed according to Example 3. […]

[2] = test system: Human fibroblasts; experiment: Total collagen content in cell culture of single-cultured human fibroblasts (Sirius Red kit, absorbance 530 nm); settings: 10 ng/mL epidermal growth factor added alone (Table 3 No. 2); FIG. 17
Procedure: To measure the human collagen content in the extracellular matrix present in a culture obtained according to each example described below, quantitative analysis was conducted by utilizing a commercially available Sirius Red kit (Chondrex, #9062). The analysis method followed the manufacturer's instructions. Specifically, Sirius Red solution was added to the culture, followed by incubation, and the precipitated collagen was then mixed with an acidic solution and quantitatively analyzed by measurement of absorbance at 530 nm.
Human fibroblasts were seeded at a density of 3×10^5 cells per 150-mm^2 culture dish. The cells were cultured in high-glucose Dulbecco's Modified Eagle's Medium (DMEM) supplemented with 10% fetal bovine serum and 1% penicillin for 7 days while a growth medium was exchanged every 2-3 days.
as §1

[3] = test system: Human fibroblasts
Procedure: The analysis method followed the manufacturer's instructions.
Culture media each lacking an individual factor were prepared, and then culture was performed according to Example 1.1.
Then, culture was performed according to Example 1.1.

B1: epidermal growth factor: growth factor / ErbB signaling factor added to the serum-free/xeno-free culture medium (protein, UniProt P01133 23-1207, looked up)
Pro-epidermal growth factor: PQHWSCPEGTLAGNGNSTCVGPAPFLIFSHGNSIFRIDTEGTNYEQLVVDAGVSVIMDFHYNEKRIYWVDLERQLLQRVFLNGSRQERVCNIEKNVSGMAINWINEEVIWSNQQEGIITVTDMKGNNSHILLSALKYPANVAVDPVERFIFWSSEVAGSLYRADLDGVGVKALLETSEKITAVSLDVLDKRLFWIQYNREGSNSLICSCDYDGGSVHISKHPTQHNLFAMSLFGDRIFYSTWKMKTIWIANKHTGKDMVRINLHSSFVPLGELKVVHPLAQPKAEDDTWEPEQKLCKLRKGNCSSTVCGQDLQSHLCMCAEGYALSRDRKYCEDVNECAFWNHGCTLGCKNTPGSYYCTCPVGFVLLPDGKRCHQLVSCPRNVSECSHDCVLTSEGPLCFCPEGSVLERDGKTCSGCSSPDNGGCSQLCVPLSPVSWECDCFPGYDLQLDEKSCAASGPQPFLLFANSQDIRHMHFDGTDYGTLLSQQMGMVYALDHDPVENKIYFAHTALKWIERANMDGSQRERLIEEGVDVPEGLAVDWIGRRFYWTDRGKSLIGRSDLNGKRSKIITKENISQPRGIAVHPMAKRLFWTDTGINPRIESSSLQGLGRLVIASSDLIWPSGITIDFLTDKLYWCDAKQSVIEMANLDGSKRRRLTQNDVGHPFAVAVFEDYVWFSDWAMPSVMRVNKRTGKDRVRLQGSMLKPSSLVVVHPLAKPGADPCLYQNGGCEHICKKRLGTAWCSCREGFMKASDGKTCLALDGHQLLAGGEVDLKNQVTPLDILSKTRVSEDNITESQHMLVAEIMVSDQDDCAPVGCSMYARCISEGEDATCQCLKGFAGDGKLCSDIDECEMGVPVCPPASSKCINTEGGYVCRCSEGYQGDGIHCLDIDECQLGEHSCGENASCTNTEGGYTCMCAGRLSEPGLICPDSTPPPHLREDDHHYSVRNSDSECPLSHDGYCLHDGVCMYIEALDKYACNCVVGYIGERCQYRDLKWWELRHAGHGQQQKVIVVAVCVVVLVMLLLLSLWGAHYYRTQKLLSKNPKNPYEESSRDVRSRRPADTEDGMSSCPQPWFVVIKEHQDLKNGGQPVAGEDGQAADGSMQPTSWRQEPQLCGMGTEQGCWIPVSSDKGSCPQVMERSFHMPSYGTQTLEGGVEKPHSLLSANPLWQQRALDPPHQMELTQ
modifications: Pro-epidermal growth factor
[1]
  laminin concentration: 2.68 µg/mL
[2]
  total collagen concentration: 56.94 µg/mL
[3]; 10 ng/mL epidermal growth factor added alone, compared with FGF-2, KGF and combinations (Table 3)
  amount of extracellular matrix produced, compared among growth factor groups: highest amount
[3]; factor individually removed from serum-free/xeno-free culture medium (Table 1), compared with medium containing all factors, FIGS. 8 and 9
  amount of extracellular matrix produced: significantly reduced
